Reference: publication PMC5653676

Biological target: IL-13 receptor (IL-4Rα and IL-13Rα1) (UniProt P24394)
UniProt P24394, sequence (P24394 26-825, chain 1 of 2): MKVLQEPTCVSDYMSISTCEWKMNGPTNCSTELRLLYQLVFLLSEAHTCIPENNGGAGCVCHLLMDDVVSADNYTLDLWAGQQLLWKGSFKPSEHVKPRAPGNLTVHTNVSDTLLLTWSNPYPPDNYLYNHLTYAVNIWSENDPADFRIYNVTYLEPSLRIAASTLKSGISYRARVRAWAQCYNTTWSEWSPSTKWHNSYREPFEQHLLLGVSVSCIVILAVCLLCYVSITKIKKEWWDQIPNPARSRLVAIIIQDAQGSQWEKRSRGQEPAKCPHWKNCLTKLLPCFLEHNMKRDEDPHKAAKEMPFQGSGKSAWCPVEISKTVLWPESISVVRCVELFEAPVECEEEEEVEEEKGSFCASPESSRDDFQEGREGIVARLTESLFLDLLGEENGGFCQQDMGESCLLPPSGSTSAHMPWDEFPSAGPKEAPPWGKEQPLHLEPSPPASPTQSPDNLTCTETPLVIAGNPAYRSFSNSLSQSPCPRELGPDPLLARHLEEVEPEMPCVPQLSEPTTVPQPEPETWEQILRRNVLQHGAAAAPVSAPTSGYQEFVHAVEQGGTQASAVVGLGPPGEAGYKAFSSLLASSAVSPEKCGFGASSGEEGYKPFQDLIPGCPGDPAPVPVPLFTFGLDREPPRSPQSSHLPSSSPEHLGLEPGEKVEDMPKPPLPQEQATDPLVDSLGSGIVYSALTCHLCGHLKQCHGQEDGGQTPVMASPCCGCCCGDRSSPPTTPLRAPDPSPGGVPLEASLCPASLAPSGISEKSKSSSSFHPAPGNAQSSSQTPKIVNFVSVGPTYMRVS
UniProt P24394, sequence (P78552 22-427, chain 2 of 2, further chain): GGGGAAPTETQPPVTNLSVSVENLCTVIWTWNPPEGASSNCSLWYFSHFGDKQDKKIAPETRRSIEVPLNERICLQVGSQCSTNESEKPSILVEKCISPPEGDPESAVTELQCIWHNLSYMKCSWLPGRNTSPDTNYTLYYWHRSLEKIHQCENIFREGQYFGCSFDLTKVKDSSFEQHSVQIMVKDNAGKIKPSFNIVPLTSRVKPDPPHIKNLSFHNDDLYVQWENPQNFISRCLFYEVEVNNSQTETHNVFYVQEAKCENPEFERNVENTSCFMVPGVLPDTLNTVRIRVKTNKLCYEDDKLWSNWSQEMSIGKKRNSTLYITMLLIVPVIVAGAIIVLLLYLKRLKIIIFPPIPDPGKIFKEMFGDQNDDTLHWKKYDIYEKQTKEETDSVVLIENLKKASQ

In the case of “human recombinant interleukin 13 (from UniProt P35225 25-146) (ligand)”, the SEAP reporter (P STAT6/cEBP-SEAP) in HEK-293 cells co-transfected with IL-13Rα1, IL-4Rα and STAT6, 48 h with different physiological IL-13 concentrations; fold induction is reported as 33 fold.
